The values below come from the FLAb antibody collection (doi:10.7554/elife.23156).

First the molecules themselves.
B1: scFv; the commonest letter at each place (parent)
chain 1: EVKLDETGGGLVQPGRPMKLSCVASGFTFSDYWMNWVRQSPEKGLEWVAQIRNKPYNYETYYSDSVKGRFTISRDDSKSSVYLQMNNLRVEDMGIYYCTGSYYGMDYWGQGTSVTVS
chain 2: DVVMTQTPLSLPVSLGDQASISCRSSQSLVHSNGNTYLRWYLQKPGQSPKVLIYKVSNRFSGVPDRFSGSGSGTDFTLKISRVEAEDLGVYFCSQSTHVPWTFGGGTKLEIK

Variants of B1 are the subject of series [1]. Description: Kd (Tite-Seq). The conditions noted are these: with fluorescein; format: scFv 4-4-20, heavy + light.
Variants of B1 are the subject of series [2]. Description: yeast surface expression (ratio to wild type); higher = more expressed. Particulars: format: scFv 4-4-20, heavy + light.

As for chain 1 D106I W108N, in series [1], the Kd is at least 10 µM. Also, the yeast surface expression in series [2] was determined as 0.254.

As to chain 1 D106I W108S, in series [1], the equilibrium dissociation constant (Kd) is at least 10 µM. Further, the yeast surface expression in series [2] came to 0.397.

Consider chain 1 T28E S30I W33I, for which, in series [1], the dissociation constant (Kd) is at least 10 µM. Moreover, the yeast surface expression in series [2] was found to be 0.628.

On to chain 1 G100I S101E, for which the dissociation constant Kd in series [1] was at least 10 µM. Further, the yeast surface expression in series [2] came out at 0.652.

As to chain 1 Y32P W36K, the Kd in series [1] is at least 10 µM. In series [2], the yeast surface expression worked out at 0.563.

With chain 1 Y32P W36C, in series [1], the dissociation constant (Kd) is at least 10 µM. Besides, the yeast surface expression in series [2] came out at 0.649.

In the case of chain 1 Y103P G109S, the equilibrium dissociation constant (Kd) in series [1] is at least 10 µM. Besides, the yeast surface expression in series [2] was determined as 0.828.

In the case of chain 1 G100C S101A, in series [1], the dissociation constant (Kd) is 0.00606 µM. Moreover, the yeast surface expression in series [2] came to 0.711.

For chain 1 Y32R M34W V37M, the Kd in series [1] was at least 10 µM. Also, the yeast surface expression in series [2] was determined as 0.728.

For the variant chain 1 F29M W33C, the equilibrium dissociation constant (Kd) in series [1] was at least 10 µM. The yeast surface expression in series [2] was found to be 0.983.

As for chain 1 S101R, in series [1], the Kd was at least 10 µM. In addition, in series [2], the yeast surface expression turned out to be 0.731.

Regarding chain 1 S101T, the Kd in series [1] is at least 10 µM. The yeast surface expression in series [2] was determined as 0.88.

As for chain 1 S101Q, the dissociation constant Kd in series [1] was at least 10 µM. The yeast surface expression in series [2] came out at 0.788.

In the case of chain 1 D31Y W33F V37H, in series [1], the Kd was at least 10 µM. Moreover, the yeast surface expression in series [2] came to 0.788.

Take chain 1 S101T Y102M: the Kd in series [1] is at least 10 µM. In addition, the yeast surface expression in series [2] was 0.778.

Take chain 1 F29C V37M: in series [1], the Kd was 0.02 µM. Further, the yeast surface expression in series [2] is 0.763.

Regarding chain 1 Y32L W36F, in series [1], the Kd was at least 10 µM. Also, the yeast surface expression in series [2] came out at 0.728.

Regarding chain 1 Y32W W33F, the dissociation constant Kd in series [1] was at least 10 µM. Moreover, the yeast surface expression in series [2] came out at 0.941.

For the variant chain 1 G100T G109K, the Kd in series [1] was at least 10 µM. In series [2], the yeast surface expression stood at 0.433.

Take chain 1 M105I Y107W: in series [1], the Kd was determined as 0.105 µM. Moreover, the yeast surface expression in series [2] was found to be 0.669.

Turning to chain 1 G100D Y102S, in series [1], the equilibrium dissociation constant (Kd) was at least 10 µM. In addition, in series [2], the yeast surface expression was 0.289.

As for chain 1 G100V Y103F, the dissociation constant (Kd) in series [1] amounted to 0.876 µM. Moreover, the yeast surface expression in series [2] was found to be 0.679.

In the case of chain 1 T28W Y32W, in series [1], the Kd was at least 10 µM. For the same variant, the yeast surface expression in series [2] was found to be 0.65.

Turning to chain 1 Y103D G109R, the Kd in series [1] is at least 10 µM. For the same variant, the yeast surface expression in series [2] is 0.269.

As for chain 1 T28R N35G, in series [1], the dissociation constant (Kd) came out at 0.0162 µM. The yeast surface expression in series [2] came to 1.03.

For the variant chain 1 D31G N35Q, the Kd in series [1] was at least 10 µM. Moreover, the yeast surface expression in series [2] turned out to be 0.746.

chain 1 T28W D31Y: in series [1], the Kd amounted to 0.11 µM. In addition, the yeast surface expression in series [2] was determined as 0.371.

Regarding chain 1 G100L G104S, the Kd in series [1] is at least 10 µM. In series [2], the yeast surface expression turned out to be 0.51.

Turning to chain 1 T28K Y32V, the dissociation constant Kd in series [1] is at least 10 µM. Besides, in series [2], the yeast surface expression stood at 0.858.

For chain 1 G100T S101D, the Kd in series [1] is at least 10 µM. Moreover, the yeast surface expression in series [2] came out at 0.83.

chain 1 G100I W108M: the Kd in series [1] came to 0.00468 µM. The yeast surface expression in series [2] turned out to be 0.946.

Consider chain 1 T28N D31I Y32R, for which the Kd in series [1] was at least 10 µM. Moreover, the yeast surface expression in series [2] amounted to 0.627.

As to chain 1 S30H W36F, the Kd in series [1] amounted to 0.004 µM. In series [2], the yeast surface expression was 0.728.

Consider chain 1 N35S V37L, for which the Kd in series [1] was at least 10 µM. In addition, in series [2], the yeast surface expression is 0.839.

Regarding chain 1 T28K M34K, the Kd in series [1] stood at 6.96 µM. Also, the yeast surface expression in series [2] stood at 0.284.

Consider chain 1 Y102L G109M, for which the dissociation constant Kd in series [1] is at least 10 µM. Besides, the yeast surface expression in series [2] was determined as 0.185.

For chain 1 S101Y Y102N D106Y, in series [1], the Kd is at least 10 µM. In addition, the yeast surface expression in series [2] came to 0.501.

As for chain 1 S101M Y103D, the Kd in series [1] is at least 10 µM. Moreover, the yeast surface expression in series [2] came out at 0.917.

Take chain 1 S30H D31I: the dissociation constant Kd in series [1] was at least 10 µM. The yeast surface expression in series [2] was determined as 0.573.

In the case of chain 1 T28C S30I, the Kd in series [1] is 0.424 µM. Further, the yeast surface expression in series [2] is 0.651.

Turning to chain 1 Y32E N35S, the Kd in series [1] was at least 10 µM. Further, the yeast surface expression in series [2] amounted to 0.87.

As for chain 1 M105H W108Q, in series [1], the dissociation constant (Kd) is at least 10 µM. For the same variant, in series [2], the yeast surface expression amounted to 0.294.

On to chain 1 S30N M34I, for which the Kd in series [1] was 0.00293 µM. Besides, the yeast surface expression in series [2] is 0.954.

Consider chain 1 W33V V37F, for which, in series [1], the dissociation constant Kd is at least 10 µM. Also, the yeast surface expression in series [2] was 0.82.

Regarding chain 1 G104H D106H, in series [1], the equilibrium dissociation constant (Kd) is at least 10 µM. The yeast surface expression in series [2] was 0.586.

chain 1 S30P M34F: the Kd in series [1] came to 0.00184 µM. Further, the yeast surface expression in series [2] was determined as 1.2.

Turning to chain 1 G100S G104W, in series [1], the Kd is at least 10 µM. Moreover, the yeast surface expression in series [2] is 0.425.

On to chain 1 Y103Q M105T, for which, in series [1], the Kd was at least 10 µM. Also, in series [2], the yeast surface expression came to 0.874.

chain 1 G104Y M105L: in series [1], the Kd was at least 10 µM. Also, the yeast surface expression in series [2] was 0.44.

Consider chain 1 Y102G M105V, for which the Kd in series [1] was at least 10 µM. In series [2], the yeast surface expression came to 1.02.

For chain 1 Y32F W33Q, in series [1], the dissociation constant (Kd) was at least 10 µM. The yeast surface expression in series [2] was 1.23.

Regarding chain 1 G100Q G104E, the Kd in series [1] is at least 10 µM. Besides, the yeast surface expression in series [2] is 0.38.

As to chain 1 Y102M W108K, the dissociation constant (Kd) in series [1] is at least 10 µM. Moreover, the yeast surface expression in series [2] stood at 0.392.

chain 1 Y103T D106S: the Kd in series [1] was at least 10 µM. For the same variant, the yeast surface expression in series [2] was 0.883.

Turning to chain 1 G100F, the Kd in series [1] was at least 10 µM. Further, the yeast surface expression in series [2] was found to be 0.93.

On to chain 1 G100V, for which the Kd in series [1] was at least 10 µM. Also, the yeast surface expression in series [2] amounted to 0.97.

Take chain 1 T28A F29V: the Kd in series [1] was 0.00638 µM. The yeast surface expression in series [2] worked out at 1.02.

chain 1 Y103W G109A: in series [1], the Kd is at least 10 µM. In series [2], the yeast surface expression was 0.557.
